Molecular target: Human recombinant Sortilin chimera protein from R&D Systems (#3154-ST) (human) (UniProt Q99523)
Test: SPR (Biacore), Sortilin immobilized on CM5 chip, ligand injected

Chain of Human recombinant Sortilin chimera protein from R&D Systems (#3154-ST) (human) (Q99523 78-755, change not shown): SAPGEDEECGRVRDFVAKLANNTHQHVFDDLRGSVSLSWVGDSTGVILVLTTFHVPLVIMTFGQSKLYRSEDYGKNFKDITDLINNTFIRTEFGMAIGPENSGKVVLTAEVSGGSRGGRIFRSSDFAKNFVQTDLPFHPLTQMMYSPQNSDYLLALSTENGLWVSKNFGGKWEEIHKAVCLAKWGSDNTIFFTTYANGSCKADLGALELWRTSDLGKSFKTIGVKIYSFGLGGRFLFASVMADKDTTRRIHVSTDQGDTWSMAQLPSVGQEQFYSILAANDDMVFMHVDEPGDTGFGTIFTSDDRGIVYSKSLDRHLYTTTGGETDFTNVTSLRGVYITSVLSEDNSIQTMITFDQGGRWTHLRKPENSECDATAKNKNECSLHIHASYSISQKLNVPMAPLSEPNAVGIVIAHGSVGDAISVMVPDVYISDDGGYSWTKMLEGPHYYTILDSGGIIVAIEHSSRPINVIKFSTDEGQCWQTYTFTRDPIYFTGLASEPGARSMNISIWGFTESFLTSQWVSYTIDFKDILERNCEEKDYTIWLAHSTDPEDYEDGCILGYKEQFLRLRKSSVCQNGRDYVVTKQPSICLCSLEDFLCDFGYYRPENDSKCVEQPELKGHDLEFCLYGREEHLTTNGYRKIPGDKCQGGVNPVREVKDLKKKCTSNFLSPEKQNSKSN

Kd [nM]	Substance
117	Neurotensin, P30990 151-163 (peptide; modification not given)
4.2	Receptor-Associated Protein (RAP) (ligand)

From patent US20200157151A1, “PEPTIDE COMPOUNDS, CONJUGATE COMPOUNDS AND USES THEREOF FOR TREATING INFLAMMATORY DISEASES” (TRANSFERT PLUS, S.E.C., priority 2017, published 2020)
